In PMC6850040 (Iubmb Life, 2019):

Key:
[1] = molecular target: OxDC (Bacillus subtilis, UniProt O34714); test: oxalate decarboxylase activity, Michaelis-Menten fit; type: biochemical; settings: pH 4.2; 140 mM NaCl; no o-phenylenediamine; potassium oxalate 0.1-250 mM
[2] = molecular target: T1, OxDC (Bacillus subtilis, UniProt O34714, S161D/E162S/N163S/S164N); test: turbidity at […] nm, protection from aggregation; type: binding; settings: 50 mM sodium glyoxylate; 16 mM Tris-HCl pH 7.2, 140 mM NaCl, 25 C; substrate analogue, active site (indirect evidence)
T1 construct: synthetic cDNA (GeneScript) in pET24a(+), thrombin site and C-terminal 6xHis; expressed in E. coli; two-step purification, untagged enzyme used; homohexamer 264 kDa, Mn-dependent

[3] = molecular target: the molecule itself; test: dynamic light scattering; 0.5 mg/mL enzyme, 25°C, 52 mM sodium acetate pH 4.2, 140 mM NaCl; self-association (hexamer)
[4] = substrate: O=C(O)C(=O)O; test: purified protein; settings: pH 4.2, 140 mM NaCl, potassium oxalate 10-200 mM

`O=C(O)C(=O)O` [oxalate] showed a Km [1] of 8 ± 0.8 mM.

In the case of `O=CC(=O)O` [sodium glyoxylate], the “turbidity at 600 nm, protection from aggregation” value [2] is reported as “We found that NaGlyox prevents aggregation”.

B1: OxDC‐DSSN (OxDC bearing the Ser161Asp, Glu162Ser, Asn163Ser, Ser164Asn mutations) (enzyme, Bacillus subtilis)
chain: MKKQNDIPQPIRGDKGATVKIPRNIERDRQNPDMLVPPETDHGTVSNMKFSFSDTHNRLEKGGYAREVTVRELPISENLASVNMRLKPGAIRELHWHKEAEWAYMIYGSARVTIVDEKGRSFIDDVGEGDLWYFPSGLPHSIQALEEGAEFLLVFDDGSFDSSNTFQLTDWLAHTPKEVIAANFGVTKEEISNLPGKEKYIFENQLPGSLKDDIVEGPNGEVPYPFTYRLLEQEPIESEGGKVYIADSTNFKVSKTIASALVTVEPGAMRELHWHPNTHEWQYYISGKARMTVFASDGHARTFNYQAGDVGYVPFAMGHYVENIGDEPLVFLEIFKDDHYADVSLNQWLAMLPETFVQAHLDLGKDFTDVLSKEKHPVVKKKCSK
notes: Oxalate decarboxylase (OxDC) of Bacillus subtilis with four substitutions in the lid; made by site-directed mutagenesis of pET24a-OxDC (thrombin cleavage site and 6xHis tag at the C-terminus); The PDB entries are of the wild-type parent; source: two-step purification giving untagged protein; not shown: His6, C-terminal, cleaved
With B1 the “stoichiometry N” value [3] was 6, the Km [4] was 0.30 ± 0.07 mM and the Vmax [4] was 2 µmol/min/mg. The kcat [4] was 1.4 s⁻¹.

B2: Oxalate decarboxylase (OxDC) from Bacillus subtilis, wild type (enzyme)
chain: MKKQNDIPQPIRGDKGATVKIPRNIERDRQNPDMLVPPETDHGTVSNMKFSFSDTHNRLEKGGYAREVTVRELPISENLASVNMRLKPGAIRELHWHKEAEWAYMIYGSARVTIVDEKGRSFIDDVGEGDLWYFPSGLPHSIQALEEGAEFLLVFDDGSFSENSTFQLTDWLAHTPKEVIAANFGVTKEEISNLPGKEKYIFENQLPGSLKDDIVEGPNGEVPYPFTYRLLEQEPIESEGGKVYIADSTNFKVSKTIASALVTVEPGAMRELHWHPNTHEWQYYISGKARMTVFASDGHARTFNYQAGDVGYVPFAMGHYVENIGDEPLVFLEIFKDDHYADVSLNQWLAMLPETFVQAHLDLGKDFTDVLSKEKHPVVKKKCSK
notes: Oxalate decarboxylase (OxDC) of Bacillus subtilis; cDNA with a thrombin cleavage site and a 6xHis tag at the C-terminus in pET24a(+); homohexamer of 264 kDa; Residues of the thrombin site may remain at the C-terminus after cleavage; Purification details are in the Supporting Information; also called wild‐type OxDC; source: two-step purification giving untagged protein; not shown: His6, …
B2 was tested, and the “stoichiometry N” value [3] was 6.
